Earlier results in patent US20260217837A1, “FGFR3 BINDING MOLECULES AND METHODS OF USE THEREOF” (Regeneron Pharmaceuticals, Inc., priority 2023, published 2026).
Residue numbers refer to the chain shown, from its start. Names may count otherwise. Read-outs that look alike come from different tables or passages of the source.

Tested on: FGFR3
[1] = Exemplary FGFR3 D3 binding sequences, antibodies of cited PCT publications
[2] = Table T-1, exemplary FGFR3 parental antibodies of cited publications

B1: 4E7(7D12): anti-FGFR3 Igl 3 antibody of WO 2010/002862 A2; SEQ ID NO: 56/54 (antibody, V domains shown)
VH: EIQLQQSGPELVKPGASVKVSCKASGYAFTSYNMYWVKQSHGKSLEWIGYIDPYNGGTRYNQKFKGKATLTVDKSSSTAYMHLNSLTSEDSAVYYCAREGGNYEAWFAYWGQGTLVTVSA
VL: QIVLTQSPALMSASPGEKVTMTCSASSSVSYMYWYQQKPRSSPKPWIYLTSNLASGVPARFSGSGSGTSYSLTISSMEAEDAATYYCQQWSSNPLTFGAGTKLELK
For B1, the Activity [1] is given as “Antagonistic” and the Activity [2] is given as “Antagonistic”.

B2: 20B4: anti-FGFR3 Igl 3 antibody of WO 2010/002862 A2; SEQ ID NO: 57/58 (antibody, V domains shown)
VH: EIQLQQSGPELVKPGASVKVSCKASGYSLTDYNMYWVKQSHGKSLEWIGYIDPYNGGTSYNQKFKGKATLTVDKSSSTAFMHLNSLTSEDSAVYYCARSLGPDFDYWGQGTTLTVSS
VL: QIVLTQSPAIMSASPGEKVTMTCSASSSVNYMHWYQQKSGTSPKRWIYDTSKLASGVPARFSGSGSGTSYSLTISSMEAEDTATYYCQQWNSNPLTFGAGTKLELK
For B2, the Activity [1] is given as “Antagonistic” and the Activity [2] is given as “Antagonistic”.

B3: Hu15D8: anti-FGFR3 Igl 3 antibody of WO 2010/002862 A2; SEQ ID NO: 59/60 (antibody, V domains shown)
VH: EVQLVQSGAEVKKPGESLKISCKGSGYSFTSYNMYWVRQMPGKGLEWMGYIDPYNGGTSYNQKFKGKATLTVDKSISTAYLQWSSLKASDTAMYYCAREGGNYEAWFAYWGQGTLVTVSS
VL: DIQLTQSPSSLSASVGDRVTITCSASSSVSYMYWFQQKPGKAPKPLIYLTSYLASGVPSRFSGSGSGTDFTLTISSLQPEDFATYYCQQWSSYPLTFGGGTKVEIK
For B3, the Activity [1] is given as “Antagonistic” and the Activity [2] is given as “Antagonistic”.

B4: VH: SEQ ID NO: 7 of PCT Publication No: WO 2010/048026 A2: unnamed anti-FGFR3 Ig-like domain 2 antibody, VH SEQ ID NO: 7 / VL SEQ ID NO: 8 of WO 2010/048026 A2; SEQ ID NO: 61/62 (antibody, V domains shown)
VH: EVQLVQSGAEVKKPGASVKVSCKASGYMFTSYGISWVRQAPGQGLEWMGWVSTYNGDTNYAQKFQGRVTVTTDTSTSTAYMELRSLRSEDTAVYYCARVLGYYDSIDGYYYGMDVWGQGTTVTVSS
VL: QSVLTQPPSLSVAPGKTATFTCGGNNIGDKSVHWYRQKPGQAPVLVMYLDTERPSGIPERMSGSNFGNTATLTITRVEAEDEADYYCQVWDSGSDHVVFGGGTKLTVLG
For B4, the Activity [2] is given as “Antagonistic”.

B5: 184.6.1.N54S: anti-FGFR3 Ig-like domain 3 antibody of WO 2010/111367 A1; SEQ ID NO: 63/64 (antibody, V domains shown)
VH: EVQLVESGGGLVQPGGSLRLSCAASGFTFTSTGISWVRQAPGKGLEWVGRIYPTSGSTNYADSVKGRFTISADTSKNTAYLQMNSLRAEDTAVYYCARARTYGIYDLYVDYTEYVMDYWGQGTLV
VL: DIQMTQSPSSLSASVGDRVTITCRASQDVDTSLAWYQQKPGKAPKLLIYSASFLYSGVPSRFSGSGSGTDFTLTISSLQPEDFATYYCQQSTGHPQTFGQGTKVEIKR
For B5, the Activity [1] is given as “Antagonistic” and the Activity [2] is given as “Antagonistic”.

B6: MS-Pro-59: anti-FGFR3 Ig-like domain 3 antibody of WO 2002/102972 A2; SEQ ID NO: 28/29 (antibody, V domains shown)
VH: QVQLQQSGPGLVKPSQTLSLTCAISGDSVSSNSAAWNWIRQSPGRGLEWLGRTYYRSKWYNDYAVSVKSRITINDTSKNQFSLQLNSVTPEDTAVYYCARSYYPDFDYWGQGTVTVSS
VL: DIELTQPPSVSVAPGQTARISCSGDALGDKYASWYQQKPGQAPVLVIYDDSDRPSGIPERFSGSNSGNTATLTISGTQAEDEADYYCQSYDGPDLWVFGGGTKLTVLGQ
In the case of B6, the Activity [1] is listed as “Antagonistic” and the Activity [2] is listed as “Antagonistic”.

B7: 184.6.58: anti-FGFR3 Ig-like domain 3 antibody of WO 2010/111367 A1 (aka R3Mab); SEQ ID NO: 65/66 (antibody, V domains shown)
VH: B5 VH with G49A, S55N
VL: B5 VL with T31I, S91G, T92A, H94N, Q96Y
For B7, the Activity [1] is listed as “Antagonistic” and the Activity [2] is listed as “Antagonistic”.

B8: 184.6.62: anti-FGFR3 Ig-like domain 3 antibody of WO 2010/111367 A1; SEQ ID NO: 67/68 (antibody, V domains shown)
VH: B5 VH with T30S, S31T, G49A, T54L, S55Y, N59H
VL: B5 VL with D30S, S32A, L33V, S91T, T92Y, G93T, H94T, P95S, Q96L
For B8, the Activity [1] is listed as “Antagonistic” and the Activity [2] is listed as “Antagonistic”.

B9: 184.6.1.NS D30E: anti-FGFR3 Ig-like domain 3 antibody of WO 2010/111367 A1; SEQ ID NO: 63/69 (antibody, V domains shown)
VH: B5 VH
VL: B5 VL with D30E
For B9, the Activity [1] is listed as “Antagonistic” and the Activity [2] is listed as “Antagonistic”.

B10: B-701: anti-FGFR3 antibody of WO 2016/134234 A1; SEQ ID NO: 70/71 (antibody, V domains shown)
VH: EVQLVESGGGLVQPGGSLRLSCAASGFTFTSTGISWVRQAPGKGLEWVGRIYPTSGSTNYADSVKGRFTISADTSKNTAYLQMNSLRAEDTAVYYCARTYGIYDLYVDYTEYVMDYWGQGTLV
VL: B5 VL with Q37K
In the case of B10, the Activity [2] is given as “Antagonistic”.

B11: KC18: anti-FGFR3 IIIb and IIIc antibody of WO 2022/040560 A1; SEQ ID NO: 72/73 (antibody, V domains shown)
VH: QVQLQQSGAELVRPGASVTLSCKASGDTFTDFEIHWVKQTPVHGLEWIGDIDPETGGTAYNQKFRGRAMLTADRSSSTAYMELRSLTSEDSAVYYCTRTYDGYPYAMDYWGQGTSVTVSS
VL: DIVMSQSPSSLAVSVGEKVTMSCKSSQSLLYSNNQKNYLAWYQQKPGQSPKLLIYWASTRESGVPDRFTGSGSGTDFTLTISSVKAEDLAVYYCQQYYSYRTFGGGTKLEIK
In the case of B11, the Activity [1] is given as “Antagonistic” and the Activity [2] is given as “Antagonistic”.

B12: KE35: anti-FGFR3 IIIb and IIIc antibody of WO 2022/040560 A1; SEQ ID NO: 74/75 (antibody, V domains shown)
VH: EVQLQQSGPELVKPGASVKMSCKASGYTFTDYNMHWVKQSHGKSLEWIGYINPNNGGTRYNQKFKGKATLTVNKSSSTAYMELRSLTSEDSAVYYCARERDYDGAMDYWGQGTSVTVSS
VL: DIQMTQSPSSLSASLGGKVTITCKASQDINKFIAWYQHKPGKGPRLLIHYTSTLQPGIPSRFSGSGSGRDYSFSISNLEPEDIATYYCLQYDNLLWTFGGGTKLEIK
For B12, the Activity [1] is given as “Antagonistic” and the Activity [2] is given as “Antagonistic”.

B13: KE42: anti-FGFR3 IIIb and IIIc antibody of WO 2022/040560 A1; SEQ ID NO: 76/77 (antibody, V domains shown)
VH: B12 VH with E46Q, R59N, K63N, G66D, S77T, A105S, Y108F
VL: B12 VL with Y87F
In the case of B13, the Activity [1] is listed as “Antagonistic” and the Activity [2] is listed as “Antagonistic”.

B14: KE58: anti-FGFR3 IIIb and IIIc antibody of WO 2022/040560 A1; SEQ ID NO: 78/79 (antibody, V domains shown)
VH: EVQLQQSGPDLVKPGASVKISCKASGYTVTDYYMNWVKQSHGKSLEWIGDINPNNGVTTYNQKFKDKATLTVDKSSSTAYMELRSLTSEDSAVYYCAREEDFDGFDYWGQGTTLTVSS
VL: DIVMTQSHKFMSTSVGDRVSITCKASQDVSTGVAWYQQKPGQSPQLLIYWASTRHTGVPDRFTGSGSGTDYILTIRSVQAEDLALYYCQQHYSTPLTFGAGTKLELK
In the case of B14, the Activity [1] is given as “Antagonistic” and the Activity [2] is given as “Antagonistic”.

B15: KE63: anti-FGFR3 IIIb and IIIc antibody of WO 2022/040560 A1; SEQ ID NO: 80/81 (antibody, V domains shown)
VH: B11 VH with D27S, T30S, D50G, R65K, R67K, M69I, T99N, P104S, Y105Q, A106T
VL: NIMMTQSPSSLAVSAGEKVTMSCKSSQSVLYSSNQKNYLAWYQQKPGQSPKLLIYWASTRESGVPDRFTGSGSGTDFTLTISSVQAEDLAVYYCHQYLSSYTFGGGTKLEMK
In the case of B15, the Activity [1] is given as “Antagonistic” and the Activity [2] is given as “Antagonistic”.

B16: KE94: anti-FGFR3 IIIb and IIIc antibody of WO 2022/040560 A1; SEQ ID NO: 82/83 (antibody, V domains shown)
VH: QVQLQQSGAELVRPGASVTLSCKASGSTFTDFEIHWVKQTPVHGLEWIGAIDPETGGTAYNQKFKGKAILTAVKSSSTAYMGLRSLTSEDSAVYYCTRNYDGYSRTMDYWGQGTSVTVSS
VL: B15 VL with T78S, T80S, A86T, K108R
For B16, the Activity [1] is given as “Antagonistic” and the Activity [2] is given as “Antagonistic”.

B17: MS-Pro-11: anti-FGFR3 Ig-like domain 3 antibody of WO 2002/102972 A2; SEQ ID NO: 30/31 (antibody, V domains shown)
VH: QVQLVQSGAEVKKPGASVKVSCKASGYTFTSYYMHWVRQAPGQGLEWMGWINPNSGGTNYAQKFQGRVTMTRDTSISTAYMELSSLRSEDTAVYYCARYYGSSLYHYVFGGFIDYWGQGTLVTVSS
VL: DIALTQPASVSGSPGQSITISCTGTSSDVGGYNYVSYQQHPGKAPKLMIYDVSNRPSGVSNRFSGSKSGNTASLTISGLQAEDEADYYCQSHHFYEVFGGGTKLTVLGQ
In the case of B17, the Activity [1] is given as “Antagonistic” and the Activity [2] is given as “Antagonistic”.

B18: FGA0002: anti-FGFR3 (S249C mutant) antibody of WO 2021/010326 A1; SEQ ID NO: 84/85 (antibody, V domains shown)
VH: QELVESGGGLVQPGGSLKLSCKASGIDFSSYGISWVRQAPGKGLEWIAYIVPGFGIRNYANSVKGRFTISSDNAQNTVFLQMTSLTASDTATYFCARVPQYASSSGYYLPFNLWGPGTLVTVSS
VL: ALVMTQTPSPVSAAVGGTVTINCQASEDIYYNLAWFQQKPGQPPKLLIYRASTLASGVPSRFSGSGSGTEFTLTISDVQCDDAATYYCLGVYTYISADGNAFGGGTEVVVK
In the case of B18, the Activity [2] is listed as “Antagonistic”.
